Experimental data reported in US8404647B2, “Peptidylarginine deiminase (PAD) inhibitors” (Chiralix B.V., priority 2008, dated 2013).
pIC50: −log10 of the molar value. Numbered stars: 1 amine (or outer) side, 2 acyl side, 3 side chain; on linkers, the order of the positions; unused ones are H or OH. Square brackets hold non-standard residues; d marks the D form. Peptide text beside a SMILES is read from it. * marks the point of attachment. Orn(fluoroacetimidoyl) = N=C(CF)NCCC[C@H](N)C(=O)O; X1 = N=C(CCl)NCCC[C@H](N[*:1])C(=O)[*:2]; Moc = COC(=O)*

Columns and labels:
creatine kinase (CK) = test: Creatine kinase activity (CK NAC activated liquiUV test); format: biochemical, mammalian; conditions: enzyme treated with inhibitor 10 min at room temperature
Experimental: (§3) The activities of CK and TG (both purchased from Sigma-Aldrich (Schnelldorf, Germany) were assayed with the help of the commercial kits CK NAC activated liquiUV test form
(§4) Human GmbH (Wiesbaden, Germany) and the Enzymatic Assay of [sequence] from Sigma-Aldrich (Schnelldorf, Germany) according to the manufacturers' instructions.

papain = papain (Carica papaya, UniProt P00784); test: biochemical
Sequence of papain (P00784 134-345): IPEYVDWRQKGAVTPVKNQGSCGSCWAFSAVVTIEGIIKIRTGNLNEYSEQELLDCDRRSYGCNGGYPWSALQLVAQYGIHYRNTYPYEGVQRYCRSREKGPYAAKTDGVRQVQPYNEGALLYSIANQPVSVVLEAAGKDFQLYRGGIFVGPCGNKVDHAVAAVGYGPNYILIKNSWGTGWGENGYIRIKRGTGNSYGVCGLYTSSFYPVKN
Experimental: The activity of papain was assessed using a similar experimental setting, based on its cleavage of pGlu-Phe-Leu-pNA in reaction buffer (25 mM Tris-HCL, pH 7.6; 150 mM NaCl).

transglutaminase (TG) = transglutaminase (TG) (UniProt P08587); test: biochemical
Sequence of transglutaminase (TG) (P08587 whole entry): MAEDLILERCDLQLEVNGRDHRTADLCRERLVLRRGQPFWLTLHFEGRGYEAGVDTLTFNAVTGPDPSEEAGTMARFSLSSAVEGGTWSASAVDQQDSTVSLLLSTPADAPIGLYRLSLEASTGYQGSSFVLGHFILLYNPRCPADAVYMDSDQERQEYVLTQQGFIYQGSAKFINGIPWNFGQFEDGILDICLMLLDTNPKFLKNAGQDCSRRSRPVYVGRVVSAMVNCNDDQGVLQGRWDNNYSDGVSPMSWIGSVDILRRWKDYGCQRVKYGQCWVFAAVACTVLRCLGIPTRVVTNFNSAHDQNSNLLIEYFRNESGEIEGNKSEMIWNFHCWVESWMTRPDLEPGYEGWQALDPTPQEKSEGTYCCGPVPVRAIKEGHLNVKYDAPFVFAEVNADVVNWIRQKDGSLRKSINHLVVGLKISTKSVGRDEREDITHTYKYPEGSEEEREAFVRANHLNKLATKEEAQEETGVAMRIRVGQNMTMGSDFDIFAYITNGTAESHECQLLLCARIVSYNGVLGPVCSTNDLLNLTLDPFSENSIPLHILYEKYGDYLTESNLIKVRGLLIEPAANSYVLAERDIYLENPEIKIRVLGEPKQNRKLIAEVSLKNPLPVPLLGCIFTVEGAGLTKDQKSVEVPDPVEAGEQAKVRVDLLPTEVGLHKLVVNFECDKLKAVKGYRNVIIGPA
Experimental: as §3, §4

caspase-3 = target: T1, caspase-3 (Homo sapiens, UniProt P42574); test: Caspase-3 activity assay (Ac-DEVDpNA cleavage); format: biochemical, mammalian; conditions: enzyme treated with inhibitor 10 min at room temperature
T1 sequence (P42574 29-175 limits assumed): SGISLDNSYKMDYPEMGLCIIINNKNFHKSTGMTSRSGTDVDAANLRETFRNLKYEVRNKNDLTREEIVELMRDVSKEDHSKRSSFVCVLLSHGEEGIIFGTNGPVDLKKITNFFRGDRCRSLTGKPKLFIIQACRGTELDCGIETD
T1 sequence (P42574 176-277 limits assumed): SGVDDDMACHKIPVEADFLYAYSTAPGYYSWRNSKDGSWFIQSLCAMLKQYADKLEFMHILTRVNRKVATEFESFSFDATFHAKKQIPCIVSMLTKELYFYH
Experimental: Upon incubation of purified recombinant caspase-3 with its commercially available substrate: acetyl-Asp-Glu-Val-Asp-p-nitroanilide (Ac-DEVDpNA) SEQ ID NO: 145 in CFS buffer (220 mM mannitol, 68 mM sucrose, 2mM NaCl, 2.5 mM KH2PO4, 10 mM HEPES, pH 7.4 plus a cocktail of protease inhibitors), the substrate is cleaved, pNA is released and its absorbance at 405 nm can be monitored.

PAD2 [1] = conditions: low doses, in vitro; cited from earlier work
PAD4 [2] = target: T2, PAD4 (Homo sapiens, UniProt Q9UM07); test: Conversion (R to Cit) of substrate peptides by PAD4, mass spectrometry; format: biochemical
T2 sequence (Q9UM07 whole entry): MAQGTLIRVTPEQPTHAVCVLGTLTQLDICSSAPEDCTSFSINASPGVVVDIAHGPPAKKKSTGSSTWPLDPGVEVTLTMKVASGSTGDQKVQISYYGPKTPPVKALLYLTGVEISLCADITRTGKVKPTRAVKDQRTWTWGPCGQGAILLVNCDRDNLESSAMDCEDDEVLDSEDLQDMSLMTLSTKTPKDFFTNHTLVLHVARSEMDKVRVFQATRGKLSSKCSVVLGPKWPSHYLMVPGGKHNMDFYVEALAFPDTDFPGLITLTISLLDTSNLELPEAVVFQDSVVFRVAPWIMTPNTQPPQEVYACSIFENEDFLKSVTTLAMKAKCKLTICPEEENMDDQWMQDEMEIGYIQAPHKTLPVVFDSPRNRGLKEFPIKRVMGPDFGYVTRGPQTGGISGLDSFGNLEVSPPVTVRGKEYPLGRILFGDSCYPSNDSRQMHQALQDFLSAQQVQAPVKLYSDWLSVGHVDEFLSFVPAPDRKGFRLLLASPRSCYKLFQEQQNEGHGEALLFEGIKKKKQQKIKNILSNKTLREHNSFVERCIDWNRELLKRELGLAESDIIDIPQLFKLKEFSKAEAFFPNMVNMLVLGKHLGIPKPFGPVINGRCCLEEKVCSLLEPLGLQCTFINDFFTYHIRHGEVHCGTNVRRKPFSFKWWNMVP
Description: From previous studies it was known that D-S-Q-F-A-F-R-G-A-S-A-S-D (designated here as L1: SEQ ID NO: 11) is a substrate for PAD2 and PAD 4. To obtain better substrates, and subsequently powerful inhibitors, we intended to identify structural elements that improve substrate properties. A set of 152 individual analog peptides was generated, each differing from L1 by one amino acid at one of the positions −4 to −1 or 1 to 4.
In Table 3 the conversion of each analog (R to Cit conversion) is depicted. Values of the analogs relate to the conversion of the analog compared to the conversion of L1 under standard conditions (100 means a conversion equal to L1, 50 means conversion of 50% of that of L1, 175 means conversion of 175% of that of L1). Numbers above 100 thus relate to amino acid substitutions that improve substrate properties.
Peptides of table 4 are represented by the following sequences SEQ ID NO: 22-31 and 33-46. Control peptide are represented by the following sequences SEQ ID NO: 11 as control L1 and SEQ ID NO: 32 as control L2. Unfortunately, a substantial number of designed peptides were too polar to be analyzed on our LC-MS system (indicated in Table 4 as n.t., not trapped on the column). We therefore also generated and tested these peptides containing two additional N-terminal F-residues to increase hydrophobicity. In this form peptides were trapped on the column and could be analyzed (see Table 5).
Based on the above results we designed 20 peptides containing multiple amino acids that improve substrate properties (see Table 7). The indicated peptides were synthesized and tested in order to identify the best substrate from this group. Here we used a test system with less enzyme (3 times less) compared to the experiments described above.
(§1) Conversion of arginine into citrulline in the substrate peptides by PAD2 or PAD4 using mass spectrometry was performed as follows. A candidate substrate peptide was incubated with a PAD as indicated for several hours at 37° C. The reaction was quenched by the addition with acetic acid. A sample was analysed on a Qtof mass spectrometer (Micromass, UK) and the mass spectrum was compared with that of the same peptide not treated with PAD. Normally, 2^+- and 3^+-ions are detected. The conversion (ΔM=0.98 Da) was calculated on the 2^+- and 3^+-ions individually, and subsequently averaged taking into account the relative peak height of the 2^+- and 3^+-signals (see FIG. 5).

PAD2 [3] = target: T3, PAD2 (Homo sapiens, UniProt Q9Y2J8); test: Conversion (R to Cit) of substrate peptides by PAD2, mass spectrometry; format: biochemical
T3 sequence (Q9Y2J8 whole entry): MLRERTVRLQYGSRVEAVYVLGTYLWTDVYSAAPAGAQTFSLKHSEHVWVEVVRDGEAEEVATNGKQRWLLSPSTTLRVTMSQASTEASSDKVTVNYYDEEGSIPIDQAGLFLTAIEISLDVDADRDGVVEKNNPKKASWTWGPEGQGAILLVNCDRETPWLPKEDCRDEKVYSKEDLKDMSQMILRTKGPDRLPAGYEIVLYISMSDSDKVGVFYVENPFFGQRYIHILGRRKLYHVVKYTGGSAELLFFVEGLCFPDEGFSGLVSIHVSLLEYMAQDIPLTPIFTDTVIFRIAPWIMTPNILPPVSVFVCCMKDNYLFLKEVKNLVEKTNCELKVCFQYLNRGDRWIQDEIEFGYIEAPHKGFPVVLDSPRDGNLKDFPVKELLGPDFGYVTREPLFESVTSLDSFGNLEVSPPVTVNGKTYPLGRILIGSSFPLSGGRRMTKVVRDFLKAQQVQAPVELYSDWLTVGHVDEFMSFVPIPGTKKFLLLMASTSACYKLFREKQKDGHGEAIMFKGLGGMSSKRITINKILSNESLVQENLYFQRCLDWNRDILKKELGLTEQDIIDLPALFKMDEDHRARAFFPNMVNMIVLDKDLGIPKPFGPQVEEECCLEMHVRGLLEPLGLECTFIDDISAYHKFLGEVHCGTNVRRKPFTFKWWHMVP
Experimental: In a similar fashion as for PAD4 we identified improved peptide substrates for PAD2. Again L1 was used as a lead compound. The set of 152 peptides from Table 3 was used and testing was performed as described before.
as §1

PAD4 [4] = target: T2, PAD4; test: Citrullination of synthetic peptides by recombinant human PAD4 (MALDI-TOF and ESI-Q-TOF mass spectrometry); format: biochemical; set-up: His6; made in house; conditions: for PAD4 conversion: Arg: share of peptide still unconverted (Arg); for PAD4 conversion: 1 Cit: share of peptide with one citrulline; for PAD4 conversion: 2 Cit: share of peptide with two citrullines
Experimental: (§2) Subsequently, the citrullinated proteins were isolated from the cell lysates by immunoaffinity purification using the RA3 single chain antibody fragment (scFv), which is specific for citrullinated epitopes {Raats et al., 2003}. After digestion of the purified proteins with trypsin, the amino acid sequence of the resulting peptides was determined by tandem mass spectrometry. Based upon the mass spectrometry data the peptides containing citrullinated residues were identified. In total 90 and 57 citrullinated peptides were identified in proteins derived from the COS-1 cells expressing PAD2 and PAD4, respectively, and 107 and 38 citrullinated peptides were obtained from HEK-293 cell material for PAD2 and PAD4, respectively. The frequency of amino acids at each of the positions between 5 residues N-terminal and 5 residues C-terminal from a citrullinated residue was derived from the combined sequences of these sites and is illustrated in Table 1. […] The efficiency by which these peptides were citrullinated by the human PAD2 and PAD4 enzymes was investigated by incubating them with the bacterially expressed, His6-tagged and IMAC purified, recombinant enzymes, followed by analysis of the products by both MALDI-TOF and ESI-Q-TOF mass spectrometry.

PAD2 [5] = target: T3, PAD2; test: Citrullination of synthetic peptides by recombinant human PAD2 (MALDI-TOF and ESI-Q-TOF mass spectrometry); format: biochemical; set-up: His6; made in house; conditions: for PAD2 conversion: Arg: share of peptide still unconverted (Arg); for PAD2 conversion: 1 Cit: share of peptide with one citrulline; for PAD2 conversion: 2 Cit: share of peptide with two citrullines
Experimental: as §2

His-tagged PAD4 = His-tagged PAD4 (Homo sapiens, UniProt Q9UM07); test: Binding of biotinylated inhibitor peptide to His-tagged PAD4 (SDS-PAGE and blot); conditions: 3 h at 37° C.; binding resistant to boiling in the presence of SDS
Sequence of His-tagged PAD4 (Q9UM07 whole entry): as the sequence (Q9UM07 whole entry) above
Experimental: In the following experiments mixtures of various quantities of biotinylated inhibitor peptide (biotin-Ahx-D-S-K-K-H-D-O(FA)-D-F-L-Y-S-D-amide (SEQ ID NO: 112), O(FA)=ornithine fluoroamidine, Ahx=6-aminohexanoic acid) and a fixed amount of His-tagged PAD4 were analysed. In short, 10 μl PAD4 solution was mixed with 10 μl inhibitor solution and incubated for 3 h at 37° C. After the addition of loading buffer containing SDS, samples were either boiled for 5 minutes or kept at room temperature. Samples were loaded on a 10% polyacrylamide gel and subjected to electrophoresis (about 1 h). Proteins were transferred to a PVDF membrane and developed with either streptavidin-alkaline phosphatase conjugate (FIG. 2) or with mouse-anti-His antibody followed by goat-anti-mouse alkaline phosphatase conjugate (FIG. 3), followed by visualisation using NBT/BCIP. In Table 18 the samples are specified.
In FIG. 2 the biotin group of the inhibitor is visualised. Only lanes where the biotinylated inhibitor is present show a coloured band. The position of the bands is around the expected molecular weight of PAD4 (77 kDa). This indicates binding of the biotinylated peptide to PAD4. This binding is not broken by boiling of the sample in the presence of SDS. In FIG. 3 the His-tag of PAD4 is visualised. Only lanes where PAD4 is present show a coloured band. […]

Row | Compound | PAD4 conversion: Arg (PAD4 [4]) | PAD4 conversion: 1 Cit (PAD4 [4]) | PAD2 conversion: Arg (PAD2 [5]) | PAD2 conversion: 1 Cit (PAD2 [5]) | PAD4 conversion: 2 Cit (PAD4 [4]) | PAD2 conversion: 2 Cit (PAD2 [5]) | further results
1 | COC(=O)N[C@H](C(=O)N[C@@H](CC(=O)O)C(=O)N[C@@H](CCCNC(=N)CF)C(=O)NCC(=O)N[C@@H](CO)C(=O)OC)[C@@H](C)O [CXP5-101, MeO2C-T-D-O(FA)-G-S-methylester] (Moc-TD[Orn(fluoroacetimidoyl)]GS-OMe) | – | – | – | – | – | – | IC50 (creatine kinase (CK)): 780 µM
2 | CC(=O)NCC(=O)N[C@@H](CC(=O)O)C(=O)N[C@@H](CCCNC(=N)CCl)C(=O)NCC(=O)N[C@@H](CO)C(=O)O [CXP5.2-078, Ac-G-D-O(CA)-G-S] (Ac-GD[X1]GS-OH; N-terminus and C-terminus assumed) | – | – | – | – | – | – | IC50 (creatine kinase (CK)): 780 µM
3 | CC(=O)N[C@@H](CCCCN)C(=O)N[C@@H](Cc1c[nH]c2ccccc12)C(=O)N[C@@H](Cc1c[nH]cn1)C(=O)N[C@@H](CCCNC(=N)CF)C(=O)N[C@@H](CC(=O)O)C(=O)N[C@@H](Cc1ccccc1)C(=O)N[C@@H](Cc1ccccc1)C(N)=O [Peptide 0748-09FA, Ac-K-W-H-O(FA)-D-F-F-amide] (Ac-KWH[Orn(fluoroacetimidoyl)]DFF-NH2) | – | – | – | – | – | – | pIC50 (papain): < 2.70; pIC50 (transglutaminase (TG)): < 3.00; IC50 (caspase-3): > 1000 µM
4 | CC(=O)O[C@H]1C(=O)[C@@]2(C)[C@H]([C@H](OC(=O)c3ccccc3)[C@]3(O)C[C@H](OC(=O)[C@H](O)[C@@H](NC(=O)c4ccccc4)c4ccccc4)C(C)=C1C3(C)C)[C@]1(OC(C)=O)CO[C@@H]1C[C@@H]2O [paclitaxel] | – | – | – | – | – | – | inhibition of citrullination of MBP by PAD2 (PAD2 [1]): can inhibit citrullination of MBP by PAD2 in vitro
5 | D-S-Q-F-A-F-R-G-A-S-A-S-D (DSQFAFRGASASD) [Peptide 0308-29, reference compound] | 98% | 2% | 68% | 32% | – | – | Conversion (%) (PAD4 [2]; Table 4, 13-mer peptides, PAD4): 30% (=L1); Conversion by PAD4 (%) (PAD4 [2]; Table 10): <20(=L1) %; conversion of L1 analogs by PAD4 (PAD4 [2]; relative to conversion of L1 under standard conditions (L1 = 100), single substitution at positions -4 to 4): 100%; Conversion (%) (PAD2 [3]; Table 9, PAD2): 45 (=L1) %; Conversion by PAD2 (%) (PAD2 [3]; Table 10): <20(=L1) %; conversion of L1 analogs by PAD2 (PAD2 [3]; relative to conversion of L1 (L1 = 100), single substitution at positions -4 to 4): 100%
6 | DDYSSSRDGYGGS [SEQ ID NO: 1] | 97% | 3% | 88% | 12% | – | – | –
7 | DGYGGSRDSYSSS [SEQ ID NO: 3] | 97% | 3% | 54% | 46% | – | – | –
8 | DSEGTWRKGPEAD [SEQ ID NO: 8] | 85% | 15% | 15% | 85% | – | – | –
9 | DSRFYWRGGGKSD [SEQ ID NO: 10] | 6% | 69% | 14% | 14% | 25% | 73% | –
10 | DSSEELRGGGKSD [SEQ ID NO: 9] | 93% | 7% | 43% | 57% | – | – | –
11 | DSYRSWRDGYYSD [SEQ ID NO: 4] | 1% | 99% | 16% | 30% | 0% | 55% | –
12 | GGYSGDRSGGGYG [SEQ ID NO: 2] | 61% | 39% | 33% | 67% | – | – | –
13 | IEIITDRQSGKKR [SEQ ID NO: 7] | 2% | 88% | 5% | 70% | 10% | 25% | –
14 | IEIMTDRGSGKKR [SEQ ID NO: 5] | 37% | 60% | 6% | 34% | 3% | 60% | –
15 | IGSRGDRSGFGKF [SEQ ID NO: 6] | 2% | 69% | 1% | 96% | 29% | 4% | –
16 | biotin-Ahx-D-S-K-K-H-D-O(FA)-D-F-L-Y-S-D-amide [biotinylated inhibitory peptide] | – | – | – | – | – | – | mode of binding of the inhibitor to PAD4 (His-tagged PAD4): covalent binding of the inhibitor to PAD4
